Source: PMC6901939, “A Novel Single Domain Antibody Targeting FliC Flagellin of Salmonella enterica for Effective Inhibition of Host Cell Invasion” (Frontiers in Microbiology, 2019)

Biological target: T1, FliC flagellin of S. enterica serovar Typhimurium (Salmonella enterica serovar …, UniProt P06179)
T1 construct: FliC flagellin, Salmonella enterica serovar Typhimurium; also called purified FliC; source: bought: Sigma-Aldrich
Test: BLI; sdAb immobilized on nickel-charged biosensors and dipped into FliC at 250, 125, 62.5, 31.3 and 15.6 nM
Conditions: both partners purified

T1 sequence (P06179 whole entry): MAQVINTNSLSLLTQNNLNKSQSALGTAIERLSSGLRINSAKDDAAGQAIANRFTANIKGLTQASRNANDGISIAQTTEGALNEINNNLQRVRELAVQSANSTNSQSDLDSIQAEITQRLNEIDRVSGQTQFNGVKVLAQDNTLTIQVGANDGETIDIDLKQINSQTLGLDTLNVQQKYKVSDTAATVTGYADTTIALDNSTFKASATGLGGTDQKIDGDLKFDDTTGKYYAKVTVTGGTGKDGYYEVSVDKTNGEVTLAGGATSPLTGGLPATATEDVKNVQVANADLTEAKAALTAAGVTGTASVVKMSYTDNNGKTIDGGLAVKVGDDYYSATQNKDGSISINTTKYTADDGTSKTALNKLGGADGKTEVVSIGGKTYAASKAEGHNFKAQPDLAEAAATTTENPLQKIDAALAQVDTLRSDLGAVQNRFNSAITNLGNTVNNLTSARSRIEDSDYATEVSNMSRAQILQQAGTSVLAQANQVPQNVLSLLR

B1: Abi-Se07 (VHH)
VHH: QVQLVESGGGLVQAGGSLRLSCTDSGRTFSVKPMGWFRQAPGMEREFVAAASFTGVSTFYADSVKDRFTIFRDKDKNTMDLQINSLKPEDTGAYYCAGTTRTLWGSKWRDVLEYEYWGQGTQVTVSS
notes: X2 = V or K), CDR2 ASX3TGVST (X3 = F or Y), CDR3 AGTX4RTLWGSKWRDX5X6EYEY (X4 = T or L; X5 = V or R; X6 = L or R); CDR3 is 20 amino acids long; The c-myc tag lies between the VHH and the His6 tag, so it probably stayed on the protein; Gene synthesized and cloned into pET27b; also called 0A07; anti-Salmonella sdAb; not shown: His6, C-terminal, kept
B1 was tested. Which Kd did it give?
Its Kd is 16.2 nM.
